Measured values: publication PMC2542469 (The Journal of Cell Biology, 2008)

Biological target: T1, Full-length human histidine-tagged Ndel1 phosphorylated in vitro by both cdk5/p25 and cdk1/cyclin B (human, UniProt Q9GZM8 1-345)
T1 sequence: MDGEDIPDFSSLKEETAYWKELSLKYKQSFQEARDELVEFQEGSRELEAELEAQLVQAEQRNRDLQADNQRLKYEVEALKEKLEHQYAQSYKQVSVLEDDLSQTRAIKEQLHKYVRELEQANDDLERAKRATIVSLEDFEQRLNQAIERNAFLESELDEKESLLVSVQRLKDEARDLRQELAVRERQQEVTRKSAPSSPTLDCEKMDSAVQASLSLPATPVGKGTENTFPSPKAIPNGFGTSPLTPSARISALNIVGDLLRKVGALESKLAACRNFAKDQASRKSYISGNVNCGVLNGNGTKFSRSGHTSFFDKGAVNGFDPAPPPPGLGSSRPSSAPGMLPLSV
Assay: co-IP

B1: Full-length Lis1, histidine tag cleaved (natural protein)
chain: MVLSQRQRDELNRAIADYLRSNGYEEAYSVFKKEAELDVNEELDKKYAGLLEKKWTSVIRLQKKVMELESKLNEAKEEFTSGGPLGQKRDPKEWIPRPPEKYALSGHRSPVTRVIFHPVFSVMVSASEDATIKVWDYETGDFERTLKGHTDSVQDISFDHSGKLLASCSADMTIKLWDFQGFECIRTMHGHDHNVSSVAIMPNGDHIVSASRDKTIKMWEVQTGYCVKTFTGHREWVRMVRPNQDGTLIASCSNDQTVRVWVVATKECKAELREHEHVVECISWAPESSYSSISEATGSETKKSGKPGPFLLSGSRDKTIKMWDVSTGMCLMTLVGHDNWVRGVLFHSGGKFILSCADDKTLRVWDYKNKRCMKTLNAHEHFVTSLDFHKTAPYVVTGSVDQTVKVWECR
- fold more Lis1 pulled down than by unphosphorylated Ndel1: ~5 fold
